Data on two molecules can be found in patent US20030082175A1 (Biogen, published 2003).

First the molecules themselves.
B1: hTRAIN-Fc (Fc fusion, human, UniProt Q9NS68 30-170, looked up)
chain: ESGDCRQQEFRDRSGNCVPCNQCGPGMELSKECGFGYGEDAQCVTCRLHRFKEDWGFQKCKPCLDCAVVNRFQKANCSATSDAICGDCLPGFYRKTKLVGFQDMECVPCGDPPPPYEPHCASKVNLVKIASTASSPRDTAL
notes: not shown: Fc part
B2: FLAG-human APRIL (ligand)
chain: DYKDDDDKGPGQVQLQKQKKQHSVLHLVPINATSKDDSDVTEVMWQPALRRGRGLQAQGYGVRIQDAGVYLLYSQVLFQDVTFTMGQVVSREGQGRQETLFRCIRSMPSHPDRAYNSCYSAGVFHLHQGDILSVIIPRARAKLNLSPHGTFLGFVKL
notes: Made from plasmid ps429 (p1448) in 293T cells; also called FLAG-hAPRIL; FLAG-h APRIL

One test has as its target T1, FLAG-hBAFF (human, UniProt Q9Y275 136-285, limits assumed).
T1 construct: also called hKayL-440 (hBAFF); hKayL-440; not shown: FLAG tag
Nature of the test: immunoprecipitation from conditioned media with ProtG-Sepharose, anti-FLAG M2 blot. The protocol: (§1) Immunoprecipitation experiments: 293T cells were transfected with indicated expression plasmid (Rec-Fc or flag ligand) in 9 cm plate. Transfected cells were left for 5d in 8 ml Optimem media (Gibco-BRL). Immunoprecipitation were performed by mixing 200 ul of each receptor-conditioned media with 200 ul of each ligand-conditioned media+400 ul PBS+10 ul ProtG-Sepharose. These were rotated 1 h on a wheel, washed 4× with 1 ml PBS, then boiled in 50 ul sample buffer (+DTT). 20 ul of each immunoprecipitation was loaded per lane. Reveal blotting was done with 1 ug/ml anti-FLAG M2 mAb (Sigma, St Louis Mo.) and anti-mouse PO (1/2000). A reprobe blot with anti-human-PO was also checked: 100 ul conditioned media was precipitated with MeOH/CHC13/lysozyme. This mix was boiled in 50 ul sample buffer (+DTT) and 20 ul was loaded. A Reveal blot was performed with anti-FLAG mAb M2 (1 ug/ml) and anti-mouse-PO (1/2000).

The test “FLAG-human APRIL” addresses B2. Described as above. The protocol: as §1
The next test concerns the target T2, hCD40-Fc (human, UniProt P25942 21-193, limits assumed).
T2 construct: not shown: Fc part
Description: ELISA, receptor-Fc coated, FLAG-tagged ligand detected with anti-FLAG M2. (An ELISA detects its analyte on a solid surface through an enzyme-linked reagent.)

T2 sequence (P25942 21-193 limits assumed): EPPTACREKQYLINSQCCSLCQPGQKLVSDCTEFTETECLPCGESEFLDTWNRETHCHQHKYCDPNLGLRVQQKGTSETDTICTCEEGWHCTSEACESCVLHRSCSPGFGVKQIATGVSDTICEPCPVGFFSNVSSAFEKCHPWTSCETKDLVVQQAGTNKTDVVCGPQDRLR
T1 sequence (Q9Y275 136-285 limits assumed): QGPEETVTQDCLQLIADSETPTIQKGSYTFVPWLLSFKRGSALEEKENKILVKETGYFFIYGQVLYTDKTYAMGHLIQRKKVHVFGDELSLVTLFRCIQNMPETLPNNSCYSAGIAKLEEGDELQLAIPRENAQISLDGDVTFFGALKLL

As to B1, the binding result with FLAG-hBAFF and in the test with FLAG-human APRIL was “no binding” throughout. Consider B2, for which the binding result with hCD40-Fc was “no binding”.
